Laboratory results as given in US11135223B2, “Compositions and methods for inhibiting Dkk-1” (YALE UNIVERSITY, priority 2016, dated 2021).

Tested on: leukocytes
Assay: Exogenous administration of Dkk-1 protein to mice
Type: in vivo, C57BL/6 mice
Protocol: FIG. 11, comprising FIG. 11A through FIG. 11J, depicts results of experiments showing Dkk-1 facilitates leukocyte migration and regulates leukocyte-platelet aggregate formation in type 2 inflammation. FIG. 11A depicts flow cytometry analysis of CD45^+ cells in lung homogenates from nine-week old Dkk-1^d/d mice and wildtype littermate controls (n=5-6/group) 72 hours after challenge with 30 μg HDM allergen extract. FIG. 11B depicts analysis of percentages of CD45^+CD41^+ cells in peripheral blood from nine-week old Dkk-1^d/d mice and wildtype littermate controls collected at 4 hours and 24 hours after allergen challenge. FIG. 11C depicts flow cytometry analysis of CD45+ cells after Dkk-1 protein (300 ng/mouse) was injected intraperitoneally. […]
FIG. 12, comprising FIG. 12A through FIG. 12G, depicts results of experiments showing regulation of LPA formation by Dkk-1. […] B-cell and CD4 T cell among CD45^+CD41^+ cells were monitored at the indicated time points in Dkk-1^d/d mice and their wildtype littermate controls challenged with 30 μg HDM extract/mouse. […] Mean fluorescence intensity was normalized to unchallenged C57BL/6 mice. […] Normalized MFI for ICAM-1 expression and the percentages of LFA-1 high cells were measured by flow cytometry following injection of 300 ng of Dkk-1 intraperitoneally. […]

B1: Dkk-1: Wnt antagonist Dickkopf-1 protein, expressed in CHO cells, added to cells or injected into mice (protein, UniProt O94907 32-266, looked up)
Dickkopf-related protein 1: TLNSVLNSNAIKNLPPPLGGAAGHPGSAVSAAPGILYPGGNKYQTIDNYQPYPCAEDEECGTDEYCASPTRGGDAGVQICLACRKRRKRCMRHAMCCPGNYCKNGICVSSDQNHFRGEIEETITESFGNDHSTLDGYSRRTTLSSKMYHTKGQEGSVCLRSSDCASGLCCARHFWSKICKPVLKEGQVCTKHRRKGSHGLEIFQRCYCGEGLSCRIQKDHHQASNSSRLHTCQRH
- LPA formation (300 ng of Dkk-1, without allergen or parasite challenge): increased
- number of infiltrated leukocytes in the lung (300 ng/mouse intraperitoneally, 72 hours after administration): did not increase
